One test deals with T1, SiaP (Photobacterium profundum, UniProt Q6LPV9).
T1 construct: gene SMB20295; native signal peptide (residues 1-22) removed, apparently untagged (pET30deltaSE, ion-exchange and hydrophobic purification), E. coli BL21(DE3)
Nature of the test: isothermal titration calorimetry. The format is binding. The settings on record: 50 mM Tris-HCl pH 8.0, 150 mM NaCl, 25 °C; single-site fit. The text has this:
isothermal titration calorimetry on SiaP | We confirmed that SiaP binds sialic acid with nanomolar affinity

Test [1] deals with SiaQM complex with SiaM R292A (Photobacterium profundum).
Test [2] addresses SiaQM transporter complex from Photobacterium profundum (Photobacterium profundum).

The text below walks through data of publication PMC9971032, “Structure and mechanism of a tripartite ATP-independent periplasmic TRAP transporter” (Nature Communications, 2023).

By Kd is commonly meant the concentration at which binding is half-saturated. A high value points to weaker binding.

`CC(=O)N[C@H]1[C@H]([C@H](O)[C@H](O)CO)OC(O)(C(=O)O)C[C@@H]1O` (stereo partly drawn) [Neu5Ac] registered a Kd at SiaP of 0.561 µM.

In the case of “SiaP (substrate-binding P-subunit of the sialic acid TRAP transporter from Photobacterium profundum) (natural protein)”, the reduction of [3H]-Neu5Ac transport activity in proteoliposomes against wildtype SiaPQM in test [1] was 87 % reduction.

Compound SiaP D59A (natural protein) displayed a reduction of [3H]-Neu5Ac transport activity in proteoliposomes against wildtype SiaPQM in test [2] of 77 % reduction.
